Measured values taken from patent US20260061032A1 (GI INNOVATION, published 2026).

B1: GI-108A1 (AHF10240) (Anti-CD73 sdAb-hIgG4 Fc-hIL2v3 fusion protein dimer) (Fc fusion)
chain: EVQLVESGGGVVQTGGSLRLSCAASGRTFTHLAMGWFRQAPGKEREFVAAISNSGAGTQFADSVKGRFTISRDNAKNTVYLQMNSLKPEDTAVYYCAADWGTRDSPSKLNAVYDYWGRGTQVTVSSGGGGSAESKYGPPCPPCPAPEAAGGPSVFLFPPKPKDQLMISRTPEVTCVVVDVSQEDPEVQFNWYVDGVEVHNAKTKPREEQFNSTYRVVSVLTVLHQDWLNGKEYKCKVSNKGLPSSIEKTISKAKGQPREPQVYTLPPSQEEMTKNQVSLTCLVKGFYPSDIAVEWESNGQPENNYKTTPPVLDSDGSFFLYSRLTVDKSRWQEGNVFSCSVLHEALHNHYTQKSLSLSLGGGGGSGGGGSGGGGSAPTSSSTKKTQLQLEHLLLDLQMILNGINNYKNPKLTAMLTAKFYMPKKATELKHLQCLERELKPLEEVLNLAQSKNFHLRPRDLISNINVIVLELKGSETTFMCEYADETATIVEFLNRWITFCQSIISTLT
notes: Homodimer through hinge cysteines
B2: GI-108A1 (AHP04167) (Anti-CD73 sdAb-hIgG4 Fc-hIL2v3 fusion protein dimer) (Fc fusion)
chain: EVQLVESGGGLVQAGGSLRLSCVVSGRTFSNYHMGWFRQAPGKEREFVAVIGRSGGPTYYADSVKGRFTISRDNAKNTVYLQMNSLKPEDTAVYYCAGDWRNSDSPSKLKPVYDYWGQGTQVTVSSGGGGSAESKYGPPCPPCPAPEAAGGPSVFLFPPKPKDQLMISRTPEVTCVVVDVSQEDPEVQFNWYVDGVEVHNAKTKPREEQFNSTYRVVSVLTVLHQDWLNGKEYKCKVSNKGLPSSIEKTISKAKGQPREPQVYTLPPSQEEMTKNQVSLTCLVKGFYPSDIAVEWESNGQPENNYKTTPPVLDSDGSFFLYSRLTVDKSRWQEGNVFSCSVLHEALHNHYTQKSLSLSLGGGGGSGGGGSGGGGSAPTSSSTKKTQLQLEHLLLDLQMILNGINNYKNPKLTAMLTAKFYMPKKATELKHLQCLERELKPLEEVLNLAQSKNFHLRPRDLISNINVIVLELKGSETTFMCEYADETATIVEFLNRWITFCQSIISTLT
notes: as for B1
B3: GI-108B1 (Anti-CD73 Ab-hIgG4 Fc-hIL2v3 fusion protein dimer) (antibody)
heavy: QVQLVQSGAEVKKPGSSVKVSCKFSGGSFTSYSFSWVRQAPGQGLEWMGRIIPVLTTTDYAQKFRDRVTITADESTSTAYMELSGLRSEDTAVYYCASGLKKNWYFDLWGRGALITVSSASTKGPSVFPLAPCSRSTSESTAALGCLVKDYFPEPVTVSWNSGALTSGVHTFPAVLQSSGLYSLSSVVTVPSSSLGTKTYTCNVDHKPSNTKVDKRVESKYGPPCPPCPAPEAAGGPSVFLFPPKPKDQLMISRTPEVTCVVVDVSQEDPEVQFNWYVDGVEVHNAKTKPREEQFNSTYRVVSVLTVLHQDWLNGKEYKCKVSNKGLPSSIEKTISKAKGQPREPQVYTLPPSQEEMTKNQVSLTCLVKGFYPSDIAVEWESNGQPENNYKTTPPVLDSDGSFFLYSRLTVDKSRWQEGNVFSCSVLHEALHNHYTQKSLSLSLGGGGGSGGGGSAPTSSSTKKTQLQLEHLLLDLQMILNGINNYKNPKLTAMLTAKFYMPKKATELKHLQCLERELKPLEEVLNLAQSKNFHLRPRDLISNINVIVLELKGSETTFMCEYADETATIVEFLNRWITFCQSIISTLT
light: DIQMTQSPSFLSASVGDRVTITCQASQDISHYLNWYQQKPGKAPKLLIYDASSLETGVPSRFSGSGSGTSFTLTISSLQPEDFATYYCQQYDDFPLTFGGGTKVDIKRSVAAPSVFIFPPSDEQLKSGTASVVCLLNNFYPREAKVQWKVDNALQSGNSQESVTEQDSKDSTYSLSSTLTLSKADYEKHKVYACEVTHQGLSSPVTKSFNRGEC
notes: IgG4 anti-CD73 antibody with the IL-2 variant fused to the C-terminus of each heavy chain; expressed in CHO cells, purified as a dimer

How the values were obtained:
[1] = target: T1, IL-2Rβγ on HEK-BLUE IL-2 reporter cells (UniProt P14784 27-551; P31785 23-369); test: cell-based or functional assay
T1 sequence (looked up) 1: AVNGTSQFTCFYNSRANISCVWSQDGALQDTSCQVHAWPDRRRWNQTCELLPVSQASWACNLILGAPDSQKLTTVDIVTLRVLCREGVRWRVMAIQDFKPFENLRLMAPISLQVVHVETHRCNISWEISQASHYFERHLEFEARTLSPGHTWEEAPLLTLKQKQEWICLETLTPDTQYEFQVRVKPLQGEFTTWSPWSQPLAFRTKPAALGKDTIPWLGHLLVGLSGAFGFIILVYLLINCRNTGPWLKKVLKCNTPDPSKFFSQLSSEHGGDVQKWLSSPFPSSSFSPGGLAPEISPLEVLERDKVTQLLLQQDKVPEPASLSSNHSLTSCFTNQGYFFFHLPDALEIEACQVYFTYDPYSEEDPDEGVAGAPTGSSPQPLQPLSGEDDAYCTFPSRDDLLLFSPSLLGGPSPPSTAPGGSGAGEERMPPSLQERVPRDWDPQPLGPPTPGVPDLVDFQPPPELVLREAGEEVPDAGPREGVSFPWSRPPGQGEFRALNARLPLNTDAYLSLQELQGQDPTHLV
T1 sequence (looked up) 2: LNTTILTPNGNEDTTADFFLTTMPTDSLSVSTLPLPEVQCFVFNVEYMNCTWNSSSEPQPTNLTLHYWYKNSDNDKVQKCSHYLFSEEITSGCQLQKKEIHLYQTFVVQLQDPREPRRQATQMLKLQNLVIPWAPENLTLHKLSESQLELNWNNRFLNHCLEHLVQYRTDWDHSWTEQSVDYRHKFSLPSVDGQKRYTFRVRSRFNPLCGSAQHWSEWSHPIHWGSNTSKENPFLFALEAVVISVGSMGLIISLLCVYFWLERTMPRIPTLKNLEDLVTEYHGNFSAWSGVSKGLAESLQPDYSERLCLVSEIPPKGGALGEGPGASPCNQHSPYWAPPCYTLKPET

[2] = target: T2, hIL-2Rαβγ on CTLL-2 cells (human, UniProt P01589 22-272; P14784 27-551; P31785 23-369); test: cell-based or functional assay
T2 sequence (looked up) 1: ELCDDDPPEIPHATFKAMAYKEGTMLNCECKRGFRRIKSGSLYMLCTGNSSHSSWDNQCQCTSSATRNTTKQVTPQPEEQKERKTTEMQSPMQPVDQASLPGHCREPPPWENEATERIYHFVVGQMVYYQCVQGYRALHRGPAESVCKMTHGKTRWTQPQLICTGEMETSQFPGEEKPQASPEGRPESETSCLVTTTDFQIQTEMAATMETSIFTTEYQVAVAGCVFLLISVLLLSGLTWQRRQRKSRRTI
T2 sequence (looked up) 2: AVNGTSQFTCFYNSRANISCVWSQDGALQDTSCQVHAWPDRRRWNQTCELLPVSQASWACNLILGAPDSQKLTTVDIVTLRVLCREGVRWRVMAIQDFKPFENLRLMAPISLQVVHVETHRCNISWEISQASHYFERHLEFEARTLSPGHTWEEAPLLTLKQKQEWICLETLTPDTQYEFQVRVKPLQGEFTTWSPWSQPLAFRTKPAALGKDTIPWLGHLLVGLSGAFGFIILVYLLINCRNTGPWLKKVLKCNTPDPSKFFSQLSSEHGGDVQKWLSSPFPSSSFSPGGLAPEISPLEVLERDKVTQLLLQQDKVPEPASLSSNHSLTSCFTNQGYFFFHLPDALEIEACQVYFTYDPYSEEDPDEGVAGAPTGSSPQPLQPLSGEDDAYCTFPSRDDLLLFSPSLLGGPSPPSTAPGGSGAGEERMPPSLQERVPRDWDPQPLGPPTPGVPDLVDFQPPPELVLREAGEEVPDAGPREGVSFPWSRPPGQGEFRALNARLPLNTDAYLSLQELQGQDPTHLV
T2 sequence (looked up) 3: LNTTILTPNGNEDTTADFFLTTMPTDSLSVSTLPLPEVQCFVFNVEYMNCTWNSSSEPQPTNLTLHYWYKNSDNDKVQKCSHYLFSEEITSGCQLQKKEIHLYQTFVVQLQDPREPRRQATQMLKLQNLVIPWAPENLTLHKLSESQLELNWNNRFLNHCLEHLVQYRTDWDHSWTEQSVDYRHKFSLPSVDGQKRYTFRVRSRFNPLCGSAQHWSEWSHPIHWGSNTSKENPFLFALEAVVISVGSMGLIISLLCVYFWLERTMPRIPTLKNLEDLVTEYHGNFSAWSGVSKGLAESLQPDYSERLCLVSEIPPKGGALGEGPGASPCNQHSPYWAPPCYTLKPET

hIL-2Rβ = target: T3, hIL-2Rβ (human, UniProt P14784 27-239); test: SPR, Biacore T200; biotinylated CD73 on SA chip, binder bound to CD73, hIL-2Rβ as analyte
T3 construct: also called hIL-2RB
T3 sequence (looked up): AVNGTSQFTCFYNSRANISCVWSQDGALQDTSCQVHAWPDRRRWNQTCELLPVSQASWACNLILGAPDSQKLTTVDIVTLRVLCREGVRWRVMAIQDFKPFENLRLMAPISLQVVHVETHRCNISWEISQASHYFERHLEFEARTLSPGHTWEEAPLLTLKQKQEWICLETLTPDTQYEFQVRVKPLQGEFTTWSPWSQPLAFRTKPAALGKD
Protocol: (§1) To quantitatively analyze the binding affinities to CD73 and IL-2 receptors of […] and GI-108B1, in which the anti-CD73 antibody that specifically binds to CD73 was linked to the IL-2 variant, and Aldesleukin (trade name: PROLEUKIN®, Novartis), the binding affinities were measured using SPR (surface plasmon resonance). Using a BIACORE™ T200 instrument (Cytiva), the binding affinities of GI-108A1 (AHF10240), GI-108A1 (AHP04167) and GI-108B1 to hCD73, cyCD73, mCD73, hIL-2Rα, hIL-2Rβ, and hIL-2Rβγ were analyzed. Oleclumab (Astrazeneca), produced on order from Ybiologics, Inc., was used as a control.
(§2) To analyze the binding affinity to hIL-2Ra, hIL-2Ra was […] immobilized on Sensor Chip CM5 using a His capture kit (Cytiva, USA). Each of GI-108A1 (AHF10240), GI-108A1 (AHP04167), GI-108B1 and PROLEUKIN®, diluted in HBS-EP+ buffer, was then applied for 1 minute, followed by analysis of association and dissociation. In addition, the binding affinities to hIL-2RB and hIL-2Rβγ were measured by a three-step analysis method including treating Sensor Chip SA (Cytiva, USA) with biotinylated CD73, and then binding each of GI-108A1 (AHF10240), GI-108A1 (AHP04167), GI-108B1 and PROLEUKIN® to CD73, followed by treatment with each of hIL-2RB and hIL-2Rβγ diluted in HBS-P+ buffer (Cytiva, USA). For hIL-2RB, association was performed for 1 minute and dissociation for 1 minute, and for hIL-2Rβγ, association was performed for 5 minutes and dissociation for 2 hours at each concentration, in a single cycle kinetics analysis. Each sensorgram was normalized and subtracted compared to a blank cell to calculate affinity.

hIL-2Rα = target: T4, hIL-2Rα (human, UniProt P01589 22-213); test: SPR, Biacore T200; hIL-2Rα on CM5 chip through His capture kit, binder as analyte
T4 construct: also called hIL-2Ra; IL-2 receptor alpha chain
T4 sequence (looked up): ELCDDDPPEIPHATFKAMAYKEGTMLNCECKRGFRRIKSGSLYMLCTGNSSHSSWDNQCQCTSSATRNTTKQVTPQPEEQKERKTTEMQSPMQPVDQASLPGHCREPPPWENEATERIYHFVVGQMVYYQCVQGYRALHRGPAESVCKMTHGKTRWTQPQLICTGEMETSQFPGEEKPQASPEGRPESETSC
Protocol: as §1, §2

Row | Binder | EC50, SEAP reporter (JAK-STAT pathway activation) in HEK-BLUE IL-2 reporter cells [1] [pM] | EC50, CTLL-2 cell proliferation (WST-1 absorbance) [2] [nM] | EC50 of CTLL-2 cell proliferation, relative to PROLEUKIN [2] [fold] | Kd (hIL-2Rβ) [nM] | binding result (hIL-2Rα)
1 | B1 | 2.63 | 2.02 | 20 | 2500 | no binding
2 | B2 | 3.94 | 3.93 | 20 | 2070 | no binding
3 | B3 | 1.28 | 1.7 | 20 | 2290 | no binding
